Laboratory results as given in patent US20250296971A1, “GASTRIC INHIBITORY PEPTIDE RECEPTOR LIGANDS” (priority 2021, published 2025).
*1 amine or outer side, *2 acyl side, *3 side chain or, on linkers, in order; H or OH if unused. Bridges are numbered along the chain shown (N, C = ends). Primed or numbered codes have the meaning given here. [ ]: non-standard residue; d: D form. The star is where a group is joined. DOTA(In) = O=C1CN2CCN3CCN(CC(=O)*)CCN(CC2)CC(=O)[O][In]([O]1)[O]C(=O)C3; Ttds(3) = 1,13-diamino-4,7,10-trioxatridecan-succinamic acid linker; APAc″ = 4-amino-1-carboxymethylpiperidine, NC1CCN(CC(=O)*)CC1; dE(AGLU) = D-glutamic acid bearing 1-amino-1-deoxy-D-glucitol; Ttds(4) = 1,13-diamino-4,7,10-trioxatridecan-succinamic acid; Pro(trans-4-NH2) = O=C([C@@H]1C[C@@H](N[*:3])CN1[*:1])[*:2]; DOTA = O=C(O)CN1CCN(CC(=O)O)CCN(CC(=O)*)CCN(CC(=O)O)CC1; 2Lut = 2,6-lutidylidene bridge between two thiols; Trp(5-Cl) = N[C@@H](Cc1c[nH]c2ccc(Cl)cc12)C(=O)O; Pyridine(2,6-diCH2) = c1cc(C[*:1])nc(C[*:2])c1; 2Lut″ = 2,6-lutidylidene linking two thiols; APAc = 4-amino-1-carboxymethylpiperidine; 1Nal = N[C@@H](Cc1cccc2ccccc12)C(=O)O; mXylylene = c1cc(C[*:1])cc(C[*:2])c1; Glutaryl = O=C(CCCC(=O)[*:2])[*:1]; AGLU = 1-amino-1-deoxy-D-glucitol; mli = maleimide bridging scaffold; Hyp = O=C(O)[C@@H]1C[C@@H](O)CN1; Cha = N[C@@H](CC1CCCCC1)C(=O)O; Cysteamide = C(CS[*:3])N[*:1]; Suc = O=C(CCC(=O)[*:2])[*:1]; N(CH2CH2)2NH = C1CN(*)CCN1; Api = NC1(C(=O)O)CCNCC1; Thp = NC1(C(=O)O)CCOCC1; Dap = NC[C@H](N)C(=O)O; DOTA′ = DOTA chelator

B1: Ac-Asp-1Ni-5Clw-Hyp-Glu-leu-[Cys(2Lut)-Thp-Leu-Ile-Cys]-NH2 (peptide)
peptide: Ac-D[1Nal][Trp(5-Cl)][Hyp]E[dL]C[Thp]LIC-NH2
modifications: linker 7-11 via Pyridine(2,6-diCH2)
SMILES: CC[C@H](C)[C@@H]1NC(=O)[C@H](CC(C)C)NC(=O)C2(CCOCC2)NC(=O)[C@@H](NC(=O)[C@@H](CC(C)C)NC(=O)[C@H](CCC(=O)O)NC(=O)[C@@H]2C[C@@H](O)CN2C(=O)[C@H](Cc2c[nH]c3ccc(Cl)cc23)NC(=O)[C@H](Cc2cccc3ccccc23)NC(=O)[C@H](CC(=O)O)NC(C)=O)CSCc2cccc(n2)CSC[C@@H](C(N)=O)NC1=O
B2: DOTA-APAc-Asp-Trp-5Clw-Hyp-Glu-leu-[Cys(2Lut)-Thp-Leu-Ile-AET] (peptide)
peptide: {DOTA-APAc″}-DW[Trp(5-Cl)][Hyp]E[dL]C[Thp]LI[Cysteamide]
modifications: linker (positions not given here) via Pyridine(2,6-diCH2); not fully specified (bridges); printed as DOTA-APAc-Asp-Trp-5Clw-Hyp-Glu-leu-[Cys(2Lut)-Thp-Leu-Ile-AET]
B3: DOTA-APAc-Asp-Trp-5Clw-Hyp-Glu-leu-[Dap(3MeBn)-Thp-Leu-Ile-AET] (peptide)
peptide: {DOTA-APAc″}-DW[Trp(5-Cl)][Hyp]E[dL][Dap][Thp]LI[Cysteamide]
modifications: linker (positions not given here) via mXylylene; not fully specified (bridges); printed as DOTA-APAc-Asp-Trp-5Clw-Hyp-Glu-leu-[Dap(3MeBn)-Thp-Leu-Ile-AET]

Key:
[1] = target: human Gastric Inhibitory Peptide Receptor (GIPR) (human) (UniProt P48546); test: FACS competition vs biotinylated GIP-057 on CHO-K1-hGIPR cells; category A: pIC50 >8.0
Sequence of human Gastric Inhibitory Peptide Receptor (GIPR) (human) (P48546 22-466 limits assumed): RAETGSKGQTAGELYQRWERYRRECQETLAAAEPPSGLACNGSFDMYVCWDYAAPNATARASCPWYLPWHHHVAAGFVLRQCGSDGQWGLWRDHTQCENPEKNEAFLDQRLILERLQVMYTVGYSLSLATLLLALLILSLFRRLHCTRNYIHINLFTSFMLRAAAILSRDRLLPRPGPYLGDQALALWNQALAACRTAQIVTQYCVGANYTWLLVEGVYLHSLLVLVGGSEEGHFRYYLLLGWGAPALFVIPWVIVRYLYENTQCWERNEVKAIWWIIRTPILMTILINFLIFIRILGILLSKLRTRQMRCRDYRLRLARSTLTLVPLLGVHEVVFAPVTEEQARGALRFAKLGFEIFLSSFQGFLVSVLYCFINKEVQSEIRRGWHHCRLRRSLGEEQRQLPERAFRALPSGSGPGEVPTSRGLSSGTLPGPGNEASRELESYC

[2] = target: biotinylated extracellular domain of the human GIP receptor (bioGIPR) (human) (UniProt P48546); test: SPR single cycle kinetics, bioGIPR captured on chip; category A: pKD >9.0
Sequence of biotinylated extracellular domain of the human GIP receptor (bioGIPR) (human) (P48546 24-138 limits assumed): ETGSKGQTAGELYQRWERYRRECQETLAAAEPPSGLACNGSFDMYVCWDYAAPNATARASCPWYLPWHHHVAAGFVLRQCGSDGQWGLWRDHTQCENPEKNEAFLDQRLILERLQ

[3] = target: human Gastric Inhibitory Peptide Receptor (human) (UniProt P48546); test: FACS competition with GIP-057 on CHO-K1-hGIPR cells; pIC50 category A: >8.0
Sequence of human Gastric Inhibitory Peptide Receptor (human) (P48546 22-466 limits assumed): as the sequence (P48546 22-466 limits assumed) above

[4] = target: biotinylated extracellular domain of the human GIP receptor (bioGIPR) (human) (UniProt P48546); test: SPR single cycle kinetics, bioGIPR captured on chip; category A: t1/2 >15 min

Row | Binder | pIC50 [1] [pic50] | pKD [2] [pkd] | pIC50 [3] [pic50] | t1/2 [4] [min]
1 | Ac-DW[Trp(5-Cl)][Hyp]S[dL]C[Thp]LIC-NH2 (linker 7-11 via Pyridine(2,6-diCH2)) [Ac-Asp-Trp-5Clw-Hyp-Ser-leu-[Cys(2Lut)-Thp-Leu-Ile-Cys]-NH2] | > 8 |  |  | 
2 | Suc-W[Trp(5-Cl)][Hyp]E[dL]C[Thp]LIC-{Ttds(3)-Lys(DOTA)-NH2} (linker 6-10 via Pyridine(2,6-diCH2)) [HO-Succinyl-Trp-5Clw-Hyp-Glu-leu-[Cys(2Lut)-Thp-Leu-Ile-Cys]-Ttds-Lys(DOTA)-NH2] |  | > 9 | > 8 | > 15
3 | Ac-DW[Trp(5-Cl)][Hyp]E[dL]C[Thp][Cha]IC-NH2 (linker 7-11 via Pyridine(2,6-diCH2)) [Ac-Asp-Trp-5Clw-Hyp-Glu-leu-[Cys(2Lut)-Thp-Cha-Ile-Cys]-NH2] | > 8 |  |  | 
4 | Ac-DW[Trp(5-Cl)][Hyp]V[dL]C[Thp]LIC-NH2 (linker 7-11 via Pyridine(2,6-diCH2)) [Ac-Asp-Trp-5Clw-Hyp-Val-leu-[Cys(2Lut)-Thp-Leu-Ile-Cys]-NH2] | > 8 |  |  | 
5 | Ac-DW[Trp(5-Cl)][Pro(trans-4-NH2)](DOTA)E[dL]C[Thp]LIC-NH2 (linker 7-11 via 2Lut″) [Ac-Asp-Trp-5Clw-Tap(DOTA)-Glu-leu-[Cys(2Lut)-Thp-Leu-Ile-Cys]-NH2] |  | > 9 | > 8 | > 15
6 | Suc-W[Trp(5-Cl)][Hyp]E[dL]C[Thp]LIC-{APAc-Lys(DOTA)-NH2} (linker 6-10 via 2Lut) [HO-Succinyl-Trp-5Clw-Hyp-Glu-leu-[Cys(2Lut)-Thp-Leu-Ile-Cys]-APAc-Lys(DOTA)-NH2] |  | > 9 | > 8 | > 15
7 | Ac-DW[Trp(5-Cl)][Hyp]E[dL]C[Thp]LIC-NH2 (linker 7-11 via mli) [Ac-Asp-Trp-5Clw-Hyp-Glu-leu-[Cys(mli)-Thp-Leu-Ile-Cys]-NH2] | > 8 |  |  | 
8 | B1 | > 8 |  |  | 
9 | {AGLU-Glutaryl-APAc}-DW[Trp(5-Cl)][Hyp]E[dL]C[Api](DOTA)LIC-{APAc-dE(AGLU)-NH2} (linker 7-11 via Pyridine(2,6-diCH2)) [AGLU-Glutar-APAc-Asp-Trp-5Clw-Hyp-Glu-leu-[Cys(2Lut)-Apc(DOTA)-Leu-Ile-Cys]-APAc-glu(AGLU)-NH2] |  | > 9 | > 8 | > 15
10 | Ac-D[Trp(5-Cl)][Trp(5-Cl)][Hyp]E[dL]C[Thp]LIC-NH2 (linker 7-11 via Pyridine(2,6-diCH2)) [Ac-Asp-5Clw-5Clw-Hyp-Glu-leu-[Cys(2Lut)-Thp-Leu-Ile-Cys]-NH2] | > 8 |  |  | 
11 | Ac-[dD]W[Trp(5-Cl)][Hyp]E[dL]C[Thp]LIC-NH2 (linker 7-11 via Pyridine(2,6-diCH2)) [Ac-asp-Trp-5Clw-Hyp-Glu-leu-[Cys(2Lut)-Thp-Leu-Ile-Cys]-NH2] | > 8 |  |  | 
12 | Suc-W[Trp(5-Cl)][Hyp]E[dL]C[Thp]LIC-{N(CH2CH2)2NH-DOTA′} (linker 6-10 via 2Lut) [HO-Succinyl-Trp-5Clw-Hyp-Glu-leu-[Cys(2Lut)-Thp-Leu-Ile-Cys]-PP-DOTA] |  | > 9 | > 8 | > 15
13 | B2 |  | > 9 | > 8 | > 15
14 | B3 |  | > 9 | > 8 | > 15
15 | {DOTA(In)-APAc″}-DW[Trp(5-Cl)][Hyp]E[dL]C[Thp]LI[Cysteamide] (linker 7-11 via 2Lut; also: DOTA as indium complex (InDOTA)) [InDOTA-APAc-Asp-Trp-5Clw-Hyp-Glu-leu-[Cys(2Lut)-Thp-Leu-Ile-AET]] |  | > 9 | > 8 | > 15
